Experimental data as given in patent US20160347802A1.

B1: human DRAXIN, AVEXIS prey or bait protein, Q8NBI3 26-349 (ligand)
chain: GALAPGTPARNLPENHIDLPGPALWTPQASHHRRRGPGKKEWGPGLPSQAQDGAVVTATRQASRLPEAEGLLPEQSPAGLLQDKDLLLGLALPYPEKENRPPGWERTRKRSREHKRRRDRLRLHQGRALVRGPSSLMKKAELSEAQVLDAAMEESSTSLAPTMFFLTTFEAAPATEESLILPVTSLRPQQAQPRSDGEVMPTLDMALFDWTDYEDLKPDGWPSAKKKEKHRGKLSSDGNETSPAEGEPCDHHQDCLPGTCCDLREHLCTPHNRGLNNKCFDDCMCVEGLRCYAKFHRNRRVTRRKGRCVEPETANGDQGSFINV
B2: human DRAXIN, AVEXIS prey or bait protein (ligand)
chain: B1 chain
B3: human Netrin-G2, AVEXIS protein (ligand, UniProt Q96CW9 18-507, looked up, not shown: small tags and cut ends)
chain: DYDICKSWVTTDEGPTWEFYACQPKVMRLKDYVKVKVEPSGITCGDPPERFCSHENPYLCSNECDASNPDLAHPPRLMFDKEEEGLATYWQSITWSRYPSPLEANITLSWNKTVELTDDVVMTFEYGRPTVMVLEKSLDNGRTWQPYQFYAEDCMEAFGMSARRARDMSSSSAHRVLCTEEYSRWAGSKKEKHVRFEVRDRFAIFAGPDLRNMDNLYTRLESAKGLKEFFTLTDLRMRLLRPALGGTYVQRENLYKYFYAISNIEVIGRCKCNLHANLCSMREGSLQCECEHNTTGPDCGKCKKNFRTRSWRAGSYLPLPHGSPNACATAGSFGNCECYGHSNRCSYIDFLNVVTCVSCKHNTRGQHCQHCRLGYYRNGSAELDDENVCIECNCNQIGSVHDRCNETGFCECREGAAGPKCDDCLPTHYWRQGCYPNVCDDDQLLCQNGGTCLQNQRCACPRGYTGVRCEQPRCDPADDDGGLDCDRAPG
B4: human Netrin-4, AVEXIS protein (ligand, UniProt Q9HB63 19-628, looked up, not shown: small tags and cut ends)
chain: GLSGVAGVSSRCEKACNPRMGNLALGRKLWADTTCGQNATELYCFYSENTDLTCRQPKCDKCNAAYPHLAHLPSAMADSSFRFPRTWWQSAEDVHREKIQLDLEAEFYFTHLIVMFKSPRPAAMVLDRSQDFGKTWKPYKYFATNCSATFGLEDDVVKKGAICTSKYSSPFPCTGGEVIFKALSPPYDTENPYSAKVQEQLKITNLRVQLLKRQSCPCQRNDLNEEPQHFTHYAIYDFIVKGSCFCNGHADQCIPVHGFRPVKAPGTFHMVHGKCMCKHNTAGSHCQHCAPLYNDRPWEAADGKTGAPNECRTCKCNGHADTCHFDVNVWEASGNRSGGVCDDCQHNTEGQYCQRCKPGFYRDLRRPFSAPDACKPCSCHPVGSAVLPANSVTFCDPSNGDCPCKPGVAGRRCDRCMVGYWGFGDYGCRPCDCAGSCDPITGDCISSHTDIDWYHEVPDFRPVHNKSEPAWEWEDAQGFSALLHSGKCECKEQTLGNAKAFCGMKYSYVLKIKILSAHDKGTHVEVNVKIKKVLKSTKLKIFRGKRTLYPESWTDRGCTCPILNPGLEYLVAGHEDIRTGKLIVNMKSFVQHWKPSLGRKVMDILKRECK
B5: human Netrin-G1, AVEXIS protein (ligand, UniProt Q9Y2I2 29-510, looked up, not shown: small tags and cut ends)
chain: HYDLCKTQIYTEEGKVWDYMACQPESTDMTKYLKVKLDPPDITCGDPPETFCAMGNPYMCNNECDASTPELAHPPELMFDFEGRHPSTFWQSATWKEYPKPLQVNITLSWSKTIELTDNIVITFESGRPDQMILEKSLDYGRTWQPYQYYATDCLDAFHMDPKSVKDLSQHTVLEIICTEEYSTGYTTNSKIIHFEIKDRFAFFAGPRLRNMASLYGQLDTTKKLRDFFTVTDLRIRLLRPAVGEIFVDELHLARYFYAISDIKVRGRCKCNLHATVCVYDNSKLTCECEHNTTGPDCGKCKKNYQGRPWSPGSYLPIPKGTANTCIPSISSIGNCECFGHSNRCSYIDLLNTVICVSCKHNTRGQHCELCRLGYFRNASAQLDDENVCIECYCNPLGSIHDRCNGSGFCECKTGTTGPKCDECLPGNSWHYGCQPNVCDNELLHCQNGGTCHNNVRCLCPAAYTGILCEKLRCEEAGSCGS

Columns and labels:
[1] = biological target: T1, human DRAXIN, AVEXIS prey or bait protein (human), Q8NBI3; assay: AVEXIS, prey on bait DRAXIN; white = No binding; conditions: remark: other sources report otherwise
T1 chain: B1 chain

[2] = biological target: T1, human DRAXIN, AVEXIS prey or bait …; assay: AVEXIS, prey on bait hDRAXIN, lower value; white = No binding; conditions: remark: other sources report otherwise
[3] = biological target: T1, human DRAXIN, AVEXIS prey or bait …; assay: AVEXIS, prey on bait hDRAXIN, upper value; white = No binding; conditions: remark: other sources report otherwise
[4] = biological target: biotinylated recombinant human DCC (human) (UniProt P43146); assay: AVEXIS, prey on bait DCC; white = No binding

| Binder | A486nm [4] | further results |
| --- | --- | --- |
| B1 |  | A486nm [1]: 0.062; A486nm [2]: 0.057; A486nm [3]: 0.054 |
| B2 | 0.072 |  |
| EVMPTLDMALFDWTDYEDLKP (peptide, not shown: small tags and cut ends) [human DRAXIN 21 amino acid Netrin binding fragment, AVEXIS prey or bait protein] | 0.06 |  |
| B3 | 0.065 |  |
| B4 | 0.065 |  |
| B5 | 0.063 |  |
